The values that follow come from patent publication US20160251436A1 (PD 1 ACQUISITION GROUP, published 2016).

Holding throughout (assay): cell-based or functional assay
Test [1] deals with T1, human Programmed Death-1 (PD-1) expressed on the cell surface (human, UniProt Q15116 25-288).
Test [2] has as its target T1, human Programmed Death-1 (PD-1) …. This is another data set of the same source.
The target is the same in test [3]. This is another data set of the same source.

T1 sequence (Q15116 25-288): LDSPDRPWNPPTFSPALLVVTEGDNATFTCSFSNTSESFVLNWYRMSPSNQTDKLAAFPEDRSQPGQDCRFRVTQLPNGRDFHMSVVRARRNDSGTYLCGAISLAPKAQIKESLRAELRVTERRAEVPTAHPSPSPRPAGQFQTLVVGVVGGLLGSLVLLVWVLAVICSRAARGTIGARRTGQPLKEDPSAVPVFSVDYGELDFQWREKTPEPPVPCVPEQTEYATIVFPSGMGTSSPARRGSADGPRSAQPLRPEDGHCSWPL

B1: 244C8-2 (100244_C8_HC1 + 100245_C8_LC3) (antibody, V domains shown)
VH: QVQLVQSGAEVKKPGASVKVSCKASGYTFTSYWMHWVRQAPGQGLEWMGMIDPSNSETSLNQKFQGRVTMTVDKSTNTVYMELSSLRSEDTAVYYCARSRGNYAYEMDYWGQGTLVTVSS
VL: DIVLTQSPGTLSLSPGEKVTLSCRASSSVSSNYLYWYQQKPGQAPRLVIYSTSNLATGIPDRFSGSGSGTDYTLTISRLEPEDFAVYFCHQWSSYPPTFGQGTKVEIK
On to B1, for which, in test [1], the “Fold Induction IFN-γ (relative to anti-CD3 + anti-CD28 only; antibody at 5 ug/mL)” value was determined as 2.66 fold and the “Fold Induction IFN-γ (relative to anti-CD3 + anti-CD28 only; antibody at 10 ug/mL)” value was 2.81 fold. Besides, in test [2], the “Fold Induction IFN-γ (relative to isotype control; NSCLC biopsy cells, 20 µg/mL)” value was 7.76 fold. Besides, in test [3], the “Fold Induction IFN-γ (normalized to nivolumab; 20 µg/mL total antibody)” value was found to be 1.77 fold.
